Consider 6 molecules from paper PMC7935764 (Structure (London, England : 1993), 2020).

The target of data set [1] is IN CCD^F185K (HIV-1 (NL4-3)). Kind of data set: AUC.
The target in data set [2] is HIV integrase CTD CTD (Human immunodeficiency virus 1) (UniProt O93215). Kind of data set: NMR. Conditions: cited from earlier work.
Data set [3] addresses HIV-1 integrase IN^F185H,L242A (HIV-1 (NL4-3)). Kind of data set: SEC-MALS.
The target is the same in data set [4]. Kind of data set: AUC.
The target of data set [5] is IN CCD^F185K (HIV-1 (NL4-3)). The data set is described as follows: SEC-MALS + AUC + other: SEC-SAXS.
The data set “SEC-MALS” concerns the molecule itself. Kind of data set: SEC-MALS.
The data set “SEC-SAXS” deals with the molecule itself. The data set is described as follows: SEC-SAXS.

On to “HFS-IN(CTD)^220-280(L242A) (from UniProt P12497 221-281) (domain or fragment)”, for which, in data set [1], the KD without BI-224436 was more than 1000 µM.
“HIV integrase CTD CTD (from UniProt O93215)”: the Kd in data set [2] is 1 µM.
With HIV-1 integrase IN^F185H,L242A (enzyme), the stoichiometry N in data set [3] and in data set [4] was 2 each time.
Regarding IN CCD^F185K (domain or fragment), in data set [5], the stoichiometry N was determined as 2.

B1: His6-FLAG-SUMO (HFS)-tagged CTD^220-270, wild type (domain or fragment)
chain: IQNFRVYYRDSRDPVWKGPAKLLWKGEGAVVIQDNSDIKVVPRRKAKIIRD
Take B1: the “stoichiometry N” value in the data set “SEC-MALS” stood at 2.

B2: CTD^220-270 (domain or fragment)
chain: IQNFRVYYRDSRDPVWKGPAKLLWKGEGAVVIQDNSDIKVVPRRKAKIIRD
On to B2, for which the “stoichiometry N” value in the data set “SEC-SAXS” came to 2.
